According to US6395526B1, “DNA polymerase” (Takara Shuzo Co., Ltd., priority 1995, dated 2002):
“Also recorded” adds a separate entry of the source.

Columns and labels:
activated DNA [1] = experiment: Optimum pH and temperature of DNA polymerase activity; type: biochemical, calf; details: Tris-HCl in place of potassium phosphate; highest pH level used in the assay
Procedure: However, because the double stranded structure of the activated DNA used as a substrate for activity assay is destructed at higher temperatures, an accurate optimum temperature for the activity of the above enzyme has not been assayed. […] This level of the heat stability allows the use of the above enzyme for PCR method.
The optimum pH was then assayed. […], and preparing a reaction mixture comprising 20 mM potassium phosphate, 15 mM MgCl2, 2 mM 2-mercaptoethanol, 0.2 mg/ml activated DNA, 40 μM each of dATP, dCTP, dGTP and dTTP, and 60 nM [^3H]-dTTP. The results are shown in FIG. 3, wherein the abscissa indicates the pH, and the ordinate indicates the radioactivity incorporated in high-molecular DNA.

[2] = system: substrate DNA (template-primer); experiment: DNA polymerase activity on different forms of substrate DNA (template-primer); type: biochemical
Procedure: The DNA polymerase activity was assayed using calf thymus DNA (manufactured by Worthington) activated by DNase I treatment (activated DNA) as a substrate. DNA activation and assay of DNA polymerase activity were carried out by the method described in DNA Polymerase from Escherichia coli, 263-276 (authored by C. C. Richardson), published by Harper & Row, edited by D. R. Davis.
An assay of enzyme activity was carried out by the following method. Specifically, 50 μl of a reaction solution [20 mM Tris-HCl (pH 7.7), 15 mM MgCl2, 2 mM 2-mercaptoethanol, 0.2 mg/ml activated DNA, 40 μM each of dATP, dCTP, dGTP and dTTP, 60 nM [^3H]-dTTP (manufactured by Amersham)], containing a sample for assaying its activity, was prepared and reacted at 75° C. for 15 minutes. A 40 μl portion of this reaction mixture was then spotted onto a DE paper (manufactured by Whatman) and washed with 5% Na2HPO4 five times. The remaining radioactivity on the DE paper was assayed using a liquid scintillation counter. The amount of enzyme which incorporated 10 nmol of [^3H]-dTMP per 30 minutes into the substrate DNA, assayed by the above-described enzyme activity assay method, was defined as one unit of the enzyme.
Next, in order to compare the selectivity of the DNA polymerase of the present invention for different forms of substrate DNA, the following template-primer was examined. Aside from the activated DNA used for conventional assay of the activity, those prepared as substrates include a thermal-denatured DNA prepared by treating the activated DNA at 85° C. for 5 minutes; M13-HT Primer prepared by annealing a 45-base synthetic deoxyribooligonucleotide of the sequence as shown by SEQ ID NO:6 in Sequence Listing as a primer to the M13 phage single stranded DNA (M13mp18 ssDNA, manufactured by Takara Shuzo Co., Ltd.); M13-RNA Primer prepared by annealing a 17-base synthetic ribooligonucleotide of the sequence as shown by SEQ ID NO:7 in Sequence Listing as a primer to the same M13 phage single stranded DNA; Poly dA-Oligo dT prepared by mixing polydeoxyadenosine (Poly dA, manufactured by Pharmacia) and oligodeoxythymidine (Oligo dT, manufactured by Pharmacia) in a 20:1 molar ratio; and Poly A-Oligo dT prepared by mixing polyadenosine (Poly A, manufactured by Pharmacia) and oligodeoxythymidine in a 20:1 molar ratio.
The DNA polymerase activity was assayed using these substrates in place of the activated DNA. The relative activity of each substrate when the activity obtained in the case of using an activated DNA as a substrate is defined as 100 is shown in Table 1. For comparison, the Pfu DNA polymerase and the Taq DNA polymerase derived from Thermus aquaticus (TaKaRa Taq, manufactured by Takara Shuzo Co., Ltd.) were also examined in the same manner.

activated DNA [3] = experiment: Optimum KCl and MgCl2 concentrations for DNA polymerase activity; type: biochemical, calf
Procedure: For a DNA polymerase preparation forming a complex of the translation products of ORF3 and ORF4 obtained in Example 3, namely the first DNA polymerase-constituting protein and the second DNA polymerase-constituting protein in a ratio at 1:1, optimum MgCl2 and KCl concentrations were firstly assayed. The DNA polymerase activity was assayed in a reaction system containing 20 mM Tris-HCl, pH 7.7, 2 mM 2-mercaptoethanol, 0.2 mg/ml activated DNA, and 40 μM each of dATP, dGTP, dCTP and dTTP in the presence of 2 mM MgCl2, while the KCl concentration was step by step increased from 0 to 200 mM KCl for each 20 mM increment. […] Next, the DNA polymerase activity was assayed in the same reaction system but in the presence of 60 mM KCl in this time, while the MgCl2 concentration was step by step increased from 0.5 to 25 mM MgCl2 for each 2.5 mM increment, to compare at each concentration.

M13-HT Primer = experiment: Primer extension reaction (autoradiogram, FIG. 6); type: biochemical; details: for inhibition of primer extension by activated DNA as competitor substrate: activated DNA added in great excess
Procedure: The primer extension activity was further investigated extensively. The M13-HT Primer, previously labeled with [γ-^32P]-ATP (manufactured by Amersham) and T4 polynucleotide kinase (manufactured by Takara Shuzo Co., Ltd.) at the 5′-end, was used as a substrate. Ten microliters of a reaction mixture [20 mM Tris-HCl (pH 7.7), 15 mM MgCl2, 2 mM 2-mercaptoethanol, 270 μM each of dATP, dGTP, dCTP and dTTP] containing the above substrate in a final concentration of […] and various DNA polymerases in amounts providing 0.05 units of activity as assayed with the activated DNA as a substrate was reacted at 75° C. for 1, 2, 3, or 4 minutes. After termination of the reaction, 2 μl of a reaction stop solution (95% […], 20 mM EDTA, 0.05% bromophenol blue, 0.05% xylenecyanol) was added, subjected to thermal denaturation treatment at 95° C. for 3 minutes. Two microliters of the reaction mixture was then subjected to electrophoresis using polyacrylamide gel containing 8 M urea and subsequently subjected to a preparation of autoradiogram. Also, in order to examine the extension activity in the presence of the activated DNA as a competitor substrate, the activated DNA was added to the above reaction mixture to a final concentration of […], and subjected to a preparation of an autoradiogram by the same procedures as described above.
In the figure, Pol, Pfu, and Taq show the results for the DNA polymerase of the present invention, the Pfu DNA polymerase and the Taq DNA polymerase, respectively. In addition, 1, 2, 3, and 4 each indicates reaction time (min). In the figure, the representation “−” and “+” show the results obtained in the absence and in the presence, respectively, of the activated DNA. The lanes G, A, T, and C at the left end of the figure also show the results of electrophoresis of the reaction products obtained by a chain termination reaction by the dideoxy method using the same substrate as above, which were used to estimate the length of each extension product.

[4] = substrate M13-HT primer, activated DNA = 100
[5] = substrate M13-RNA primer, activated DNA = 100
[6] = substrate activated DNA (defined as 100)
[7] = substrate poly A-Oligo dT, activated DNA = 100
[8] = substrate poly dA-Oligo dT, activated DNA = 100
[9] = substrate thermal-denatured DNA, activated DNA = 100

pH of maximum activity (activated DNA [1])	MgCl2 concentration of maximum activity (activated DNA [3]; in the absence of KCl) [mM]	KCl concentration of maximum activity (activated DNA [3]; in the presence of 2 mM MgCl2, 20 mM Tris-HCl pH 7.7) [mM]	MgCl2 concentration of maximum activity (activated DNA [3]; in the presence of 60 mM KCl) [mM]	Substance	Relative Activity [2, 4]	Relative Activity [2, 5]	Relative Activity [2, 6]	Relative Activity [2, 7]	Relative Activity [2, 8]	Relative Activity [2, 9]	primer extension activity (M13-HT Primer; M13-HT Primer, 75° C., 1-4 min, compared with Pfu and Taq DNA polymerases)	inhibition of primer extension by activated DNA as competitor substrate (M13-HT Primer)
8.02	17.5	60	10	DNA Polymerase of the Present Invention: complex of first (ORF3, SEQ ID NO:2) and second (ORF4, SEQ ID NO:4) DNA polymerase-constituting proteins from Pyrococcus furiosus	170	52	100	0.085	94	340	superior primer extension activity	unlikely to be inhibited; also recorded: inhibited at a low level
				Taq DNA Polymerase: Taq DNA polymerase derived from Thermus aquaticus (TaKaRa Taq, manufactured by Takara Shuzo Co., Ltd.) [reference compound]	90	38	100	0.063	290	130		markedly inhibited; also recorded: strongly inhibited
